# Assay results taken from US5846764, “Materials and methods relating to proteins that interact with casein kinase I” (ICOS Corporation, dated 1998).
# Experiments:
# [1] = target: lexA::HRR25 non-catalytic domain fragment (pBTM116::Non-catalytic) (E. coli; S. cerevisiae) (UniProt P0A7C2); experiment: yeast two-hybrid (lexA bait, GAL4 prey), liquid β-galactosidase assay
# [2] = target: lexA::HRR25 fusion (pBTM116::HRR25) (E. coli; S. cerevisiae) (UniProt P0A7C2); experiment: as above
# [3] = target: lexA::HRR25 K→R fusion (pBTM116::HRR25K→R) (E. coli; S. cerevisiae) (UniProt P0A7C2); experiment: as above
# [4] = target: lexA::HRR25 catalytic domain fragment (pBTM116::Kinase domain) (E. coli; S. cerevisiae) (UniProt P0A7C2); experiment: yeast two-hybrid (lexA bait, GAL4 activation domain prey), liquid β-galactosidase assay, normalized to vector alone
# lexA::HRR25 catalytic domain fragment (pBTM116::Kinase domain) (E. coli; S. cerevisiae), sequence (P0A7C2 1-202, tags or fused parts left off): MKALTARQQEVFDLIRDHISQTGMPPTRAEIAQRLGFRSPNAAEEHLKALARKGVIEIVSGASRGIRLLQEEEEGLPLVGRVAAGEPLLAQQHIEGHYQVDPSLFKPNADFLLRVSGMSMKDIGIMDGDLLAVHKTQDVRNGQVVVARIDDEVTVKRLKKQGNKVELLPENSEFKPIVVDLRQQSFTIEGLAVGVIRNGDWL
# [5] = target: lexA::NUF1 fusion (pBTM116::NUF1) (E. coli; S. cerevisiae) (UniProt P0A7C2); experiment: as above
# [6] = target: lexA::HRR25 fusion (pBTM116::HRR25) (E. coli; S. cerevisiae) (UniProt P0A7C2); experiment: as above
# [7] = target: lexA::HRR25 K→R fusion (pBTM116::HRR25K→R) (E. coli; S. cerevisiae) (UniProt P0A7C2); experiment: as above
# [8] = target: T1, lexA DNA binding domain alone (pBTM116 vector) (E. coli, UniProt P0A7C2); experiment: yeast two-hybrid, liquid β-galactosidase assay
# Procedure: To construct pairwise combinations between pBTM116-based plasmids and pGAD-based plasmids, yeast strains of opposite mating types were replica plated in a crossed pattern on YEPD medium (Bio101) and were allowed to mate for 18 hours. Diploid cells were selected by a second replica plating onto SD-leucine, -tryptophan medium to select for cells that contained both pBTM116-type and pGAD-type plasmids. The isolated diploids were grown in liquid SD-leucine, -tryptophan medium to a cell density of 2×10^7 cells/ml and the level of interaction of the kinase and interacting protein, as determined by beta-galactosidase activity, was determined from cells that were lysed by adding 3 drops of chloroform and 50 µl of 0.1 % SDS to 2×10^6 cells suspended in 0.1 ml of Z buffer and subsequently adding 0.2 ml of the chromogenic substrate o-nitrophenyl-β-D-galactoside. β-galactosidase assays were terminated by adding 0.5 ml of 1M Na_2CO_3 and activity was measured by reading absorbance at 420 nm using a Milton Roy spectrophotometer (Rochester, N.Y.). In this assay, the degree of protein/protein interaction is directly proportional to the level of β-galactosidase activity. […] Values were normalized to vector alone controls.
# [9] = target: lexA::HRR25 non-catalytic domain fragment (pBTM116::Non-catalytic) (E. coli; S. cerevisiae, UniProt P0A7C2); experiment: yeast two-hybrid (lexA bait, GAL4 activation domain prey), liquid β-galactosidase assay, normalized to vector alone
# [10] = target: T1, lexA DNA binding domain alone (pBTM116 …); experiment: as above
# [11] = target: lexA::HRR25 non-catalytic domain fragment (pBTM116::Non-catalytic) (E. coli; S. cerevisiae) (UniProt P0A7C2); experiment: as above
units of β-galactosidase activity [1],units of β-galactosidase activity [2],units of β-galactosidase activity [3],relative β-galactosidase activity [4],relative β-galactosidase activity [5],relative β-galactosidase activity [6],relative β-galactosidase activity [7],binding result [8],relative β-galactosidase activity [9],relative β-galactosidase activity [10],relative β-galactosidase activity [11],Molecule
70 units,16 units,55 units,–,–,–,–,–,–,–,–,GAL4::KIP1 fusion (pGAD::KIP1) (from UniProt P28742)
< 0.1 units,10 units,16 units,–,–,–,–,–,–,–,–,GAL4::KIP2 fusion (pGAD::KIP2) (from UniProt P28743)
–,–,–,160,< 5,650,150,no binding (tested: <5),< 5,< 5,–,GAL4 activation domain::TIH2 library clone (pGAD::TIH2) (other) RSSSNLSLDSLSKMSGSGNNNTSNNQLFSTLMNGINANSMMNSPMNNTINNNSSNNNNSGNIILNQPSLSAQHTSSSLYQTNVNNQAQMSTERFYAPLPSTSTLPLPPQQLDFNDPDTLEIYSQLLLFKDREKYYYELAYPMGISASHKRIINVLCSYLGLVEVYDPRFIIIRRKILDHANLQSHLQQQGQMTSAHPLQPNSTGGSMNRSQSYTSLLQAHAAAAANSISNQAVNNSSNSNTINSNNGNGNNVIINNNSASSTPKISSQGQFSMQPTLTSPKMNIHHSSQYNSADQPQQPQPQTQQNVQSAAQQQQSFLRQQATLTPSSRIPSGYSANHYQINSVNPLLRNSQISPPNSQIPINSQTLSQAQPPAQSQTQQRVPVAYQNASLSSQQLYNLNGPSSANSQSQLLPQHTNGSVHSNFSYQSYHDESMLSAHNLNSADLIYKSLSHSGLDDGLEQGLNRSLSGLDLQNQNKKNLW
–,–,–,130,10,100,30,no binding (tested: <5),–,< 5,< 5,GAL4 activation domain::TIH3 library clone (pGAD::TIH3) (other) IKPMVESNCKNGQISATKDLVKLVEEFVEKYVELSKEKADTLKPLPSVTSFGSPRKVAAPELSMVQPESKPEAEAEISEIGSDRWRFNWVNIIILVLLVLNLLYLMKLNKKMDKLTNLMTHKDEVVAHATLLDIPAQVQWSRPRRGDVL
–,–,–,820,< 5,850,100,no binding (tested: <5),–,< 5,< 5,GAL4 activation domain::TIH1 library clone (pGAD::TIH1) (other) DQLKSYAEEQLKLLLGITKEEQIDPGRELLNMLHTAVQANSNNNAVSNGQVPSSQELQHLKEQSGEHNQQKDQQSSFSSQQQPSIFPSLSEPFANNKNVIPPTMPMANVFMSNPQLFATMNGQPFAPFPFMLPLTNNSNSANPIPTPVPPNFNAPPNPMAFGVPNMHNLSGPAVSQPFSLPPAPLPRDSGYSSSSPGQLLDILNSKKPDSNVQSSKKPKLKILQRGTDLNSLKQNNNDETAHSNSQALLDLLKKPTSSQKIHASKPDTSFLPNDSVSGIQDAEYEDFESSSDEEVETARDERNSLNVDIGVNVMPSEKDSRRSQKEKPRNDASKTNLNASAESNSVEWGAG

# More lines, now with the values behind:
Molecule,units of β-galactosidase activity [1],units of β-galactosidase activity [2],units of β-galactosidase activity [3],relative β-galactosidase activity [4],relative β-galactosidase activity [5],relative β-galactosidase activity [6],relative β-galactosidase activity [7],binding result [8],relative β-galactosidase activity [9],relative β-galactosidase activity [10],relative β-galactosidase activity [11]
GAL4::KAR3 fusion (pGAD::KAR3) (from UniProt P17119),60 units,15 units,75 units,–,–,–,–,–,–,–,–
GAL4::CIN8 fusion (pGAD::CIN8) (from UniProt P27895),< 0.1 units,5 units,28 units,–,–,–,–,–,–,–,–
GAL4 activation domain::TIH4 library clone (pGAD::TIH4) (protein) RRMISELKNRSNIGEPLTKSSNESTYKDIKATGNDGDPNLALMRAENRVLKYKLENCEKLLDKDVVDLQDSEIMEIVEMLPFEVGTLLETKFQGLESQIRQYRKYTQKLEDKIMALEKSGHTAMSLTGCDGTEVIELQKMLERKDKMIEALQSAKRLRDRALKPLINTQQSPHPVVDNDK,–,70 units,66 units,–,–,–,–,–,–,–,–
